# Values quoted from earlier work in PMC2766628.
# Biological target: PEP 3BP1 element (UniProt Q9Y2R2)
# Chain of UniProt Q9Y2R2 (Q9Y2R2 605-629): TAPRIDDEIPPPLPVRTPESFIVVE
substance,measurement,value
Csk SH3 (from UniProt P41240),Kd,800 nM
